Where a chain is given by its changes, count along the chain named. In names and notes the source's numbering stands.

The assay deals with T1, Twin-Strep-tagged LY6A, BALB/cJ variant (GPI-anchor truncated, soluble) (mouse (BALB/cJ), UniProt P05533 27-111).
T1 construct: range 1-111; also called BALB/cJ LY6A; BABL/cJ LY6A; not shown: Twin-Strep-tag from vector pESG-IBA103
T1 sequence: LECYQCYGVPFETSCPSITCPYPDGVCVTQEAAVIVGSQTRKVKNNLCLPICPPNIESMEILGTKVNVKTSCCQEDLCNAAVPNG
The assay is described as follows: ELISA, AAV particles on plate-bound Twin-Strep-tagged LY6A.

B1: AAV-PHP.B V592G mutant capsid (other)
chain: MAADGYLPDWLEDNLSEGIREWWALKPGAPQPKANQQHQDNARGLVLPGYKYLGPGNGLDKGEPVNAADAAALEHDKAYDQQLKAGDNPYLKYNHADAEFQERLKEDTSFGGNLGRAVFQAKKRLLEPLGLVEEAAKTAPGKKRPVEQSPQEPDSSAGIGKSGAQPAKKRLNFGQTGDTESVPDPQPIGEPPAAPSGVGSLTMASGGGAPVADNNEGADGVGSSSGNWHCDSQWLGDRVITTSTRTWALPTYNNHLYKQISNSTSGGSSNDNAYFGYSTPWGYFDFNRFHCHFSPRDWQRLINNNWGFRPKRLNFKLFNIQVKEVTDNNGVKTIANNLTSTVQVFTDSDYQLPYVLGSAHEGCLPPFPADVFMIPQYGYLTLNDGSQAVGRSSFYCLEYFPSQMLRTGNNFQFSYEFENVPFHSSYAHSQSLDRLMNPLIDQYLYYLSRTINGSGQNQQTLKFSVAGPSNMAVQGRNYIPGPSYRQQRVSTTVTQNNNSEFAWPGASSWALNGRNSLMNPGPAMASHKEGEDRFFPLSGSLIFGKQGTGRDNVDADKVMITNEEEIKTTNPVATESYGQVATNHQSAQTLAGPFKAQAQTGWVQNQGILPGMVWQDRDVYLQGPIWAKIPHTDGNFHPSPLMGGFGMKHPPPQILIKNTPVPADPPTAFNKDKLNSFITQYSTGQVSVEIEWELQKENSKRWNPEIQYTSNYYKSNNVEFAVNTEGVYSEPRPIGTRYLTRNL
For B1, the binding result is on record as “no binding”.

B2: AAV-PHP.eB capsid (other)
chain: B1 chain with A587D, Q588G, G592V
For the molecule B2, the binding result is listed as “binds”.

The values above are taken from patent US20210393713A1 (University of Pennsylvania, published 2021).
